Measured values: publication PMC8303269, “ERα36–GPER1 Collaboration Inhibits TLR4/NFκB-Induced Pro-Inflammatory Activity in Breast Cancer Cells” (International Journal of Molecular Sciences, 2021)

Target: T1, G-protein Estrogen Receptor 1 (GPER1) (human (endogenous in SKBR3), UniProt Q99527 1-375)
T1 construct: Endogenous protein precipitated and detected with mouse monoclonal anti-human GPER1 (clone 2F2); also called GPR30; source: endogenous, SKBR3 cells (fixed cells; whole-cell extract)
Assay: proximity ligation; Duolink In Situ, bright field; fixed SKBR3 cells, endogenous proteins; rabbit polyclonal anti-ERα36 and mouse monoclonal anti-GPER1; cells treated with E2 (10^-7 M) and/or LPS
Conditions: partners not purified

T1 sequence (Q99527 whole entry): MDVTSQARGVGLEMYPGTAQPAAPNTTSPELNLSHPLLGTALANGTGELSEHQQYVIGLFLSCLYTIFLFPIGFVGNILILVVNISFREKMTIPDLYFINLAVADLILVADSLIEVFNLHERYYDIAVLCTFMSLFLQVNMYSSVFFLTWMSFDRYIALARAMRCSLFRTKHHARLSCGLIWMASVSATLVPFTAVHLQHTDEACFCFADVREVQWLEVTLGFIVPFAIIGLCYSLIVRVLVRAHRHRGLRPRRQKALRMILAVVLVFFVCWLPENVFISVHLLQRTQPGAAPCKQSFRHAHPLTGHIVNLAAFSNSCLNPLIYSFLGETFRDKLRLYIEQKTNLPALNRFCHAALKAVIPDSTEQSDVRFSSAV

B1: estrogen receptor alpha 36 (ERα36) (receptor, human (endogenous in SKBR3), UniProt P03372-4 1-310, looked up)
chain: MAMESAKETRYCAVCNDYASGYHYGVWSCEGCKAFFKRSIQGHNDYMCPATNQCTIDKNRRKSCQACRLRKCYEVGMMKGGIRKDRRGGRMLKHKRQRDDGEGRGEVGSAGDMRAANLWPSPLMIKRSKKNSLALSLTADQMVSALLDAEPPILYSEYDPTRPFSEASMMGLLTNLADRELVHMINWAKRVPGFVDLTLHDQVHLLECAWLEILMIGLVWRSMEHPGKLLFAPNLLLDRNQGKCVEGMVEIFDMLLATSSRFRMMNLQGEEFVCLKSIILLNSGISHVEAKKRILNLHPKIFGNKWFPRV
notes: called estrogen receptor isoform 4 in the NCBI database; Endogenous protein detected with a rabbit polyclonal anti-ERα36 antibody; also called ERa36; estrogen receptor isoform 4; source: endogenous, SKBR3 cells (fixed cells; whole-cell extract)
fold increase of interacting pairs (PLA dots) with LPS: ~5 fold
